How the values were obtained:
Assay in all cases: cell_activity
ZFN 29250 (engineered) = tested on: ZFN 29250 (engineered)
[1] = tested on: TALEN 101270 (engineered); conditions: pair with 101267, K562, 1600 ng, day 3
[2] = tested on: TALEN 101286 (engineered); conditions: pair with 101284, K562, 1600 ng, day 3
[3] = tested on: TALEN 101282 (engineered); conditions: pair with 101288, K562, 1600 ng, day 3
ZFN 29216 (engineered) = tested on: ZFN 29216 (engineered)
ZFN 30179 (engineered) = tested on: ZFN 30179 (engineered)
[4] = tested on: TALEN 101278 (engineered)
[5] = tested on: TALEN 101284 (engineered)
ZFN 29251 (engineered) = tested on: ZFN 29251 (engineered)
[6] = tested on: TALEN 101288 (engineered)
ZFN 29223 (engineered) = tested on: ZFN 29223 (engineered)
[7] = tested on: TALEN 101276 (engineered)
[8] = tested on: TALEN 101272 (engineered); conditions: pair with 101271, K562, 1600 ng, day 3
[9] = tested on: TALEN 101271 (engineered); conditions: pair with 101272, K562, 1600 ng, day 3
[10] = tested on: TALEN 101267 (engineered); conditions: pair with 101270, K562, 1600 ng, day 3

ATCTCGAGCAAGACGTTCAGTCCTACAG (double strand) [29250 site]
activity (ZFN 29250 (engineered); pair with 29251, K562, 800 ng, day 3): 69.2 % NHEJ | activity (ZFN 29250 (engineered); pair with 29251, rhesus LLC-MK2 (sites stated conserved)): 8.2 % NHEJ

TGCTCACCACGAC (double strand) [101270 site]
activity [1]: 31.8 % NHEJ

TCTATCACTATTTCTAT (double strand) [101286 site]
activity [2]: 35.3 % NHEJ

TTTGCTGACCTGCTGGAT (double strand) [101282 site]
activity [3]: 46.2 % NHEJ

ATGTAATCCAGCAGGTCAGCAAAGAATT (double strand) [29216 site]
activity (ZFN 29216 (engineered); pair with 29223 (printed 29233), rhesus LLC-MK2): 2.7 % NHEJ

canine HPRT locus, other sites
activity (ZFN 30179 (engineered); pair with 29250, canine D17, 100 ng): 9.2 % NHEJ | activity ([4]; pair with 101276, canine D17, 200 ng, 0 at 100 and 400 ng): 2.5 % NHEJ | activity (ZFN 29216 (engineered); pair with 29223, canine D17): 0 % NHEJ | activity ([5]; pair with 101288, canine D17, 100 ng): 25.1 % NHEJ | activity (ZFN 29251 (engineered); pair with 29250, canine D17, 200 ng, 0 at 100 and 400 ng): 2.8 % NHEJ | activity ([6]; pair with 101284, canine D17, 100 ng): 25.1 % NHEJ | activity (ZFN 29223 (engineered); pair with 29216, canine D17): 0 % NHEJ

TGGATCTATCACTATTT (double strand) [101288 site]
activity ([6]; pair with 101284, K562, 1600 ng, day 3): 62.2 % NHEJ | activity ([6]; pair with 101284, rhesus LLC-MK2): 8.7 % NHEJ

TGTAGGACTGAACGTCTT (double strand) [101276 site]
activity ([7]; pair with 101278, K562, 1600 ng, day 3): 35.3 % NHEJ | activity ([7]; pair with 101278, rhesus LLC-MK2): 7.6 % NHEJ

TGGCCTCCCATCTCCT (double strand) [101278 site]
activity ([4]; pair with 101276, K562, 1600 ng, day 3): 35.3 % NHEJ | activity ([4]; pair with 101276, rhesus LLC-MK2): 7.6 % NHEJ

TGGGCCTGAACCGGCC (double strand) [101272 site]
activity [8]: 19.1 % NHEJ

TTGCTGACCTGCTGGATT (double strand) [101284 site]
activity ([5]; pair with 101288, K562, 1600 ng, day 3): 62.2 % NHEJ | activity ([5]; pair with 101288, rhesus LLC-MK2): 8.7 % NHEJ

TGGCGTCGTGGTGAGC (double strand) [101271 site]
activity [9]: 19.1 % NHEJ

AACTTTTGTTAAATTCCTGATTTTATTTCTGTAGGACTGAGCGGCTTGCTCGAGATGTG (double strand) [canine HPRT region (29250/101276 site)]
activity ([7]; pair with 101278, canine D17, 200 ng, 0 at 100 and 400 ng): 2.5 % NHEJ | activity (ZFN 29250 (engineered); pair with 30179, canine D17, 100 ng): 9.2 % NHEJ

TCCGTTATGGCGAC (double strand) [101267 site]
activity [10]: 31.8 % NHEJ

AAGCACTGAATAGAAATAGTGATAGATC (double strand) [29223 site]
activity (ZFN 29223 (engineered); pair with 29216, rhesus LLC-MK2, printed as 29233): 2.7 % NHEJ

TGATGAAGGAGATGGGAGGCCATCACAT (double strand) [29251/30179 site]
activity (ZFN 30179 (engineered); pair with 29250, rhesus LLC-MK2): 0 % NHEJ | activity (ZFN 29251 (engineered); pair with 29250, K562, 800 ng, day 3): 69.2 % NHEJ | activity (ZFN 29251 (engineered); pair with 29250, rhesus LLC-MK2 (sites stated conserved)): 8.2 % NHEJ

Source: patent publication US20130122591
